We go through one molecule from WO2011147834A1 (dated 2011).

Several values for one entry are separate records, joined by “and”; a condition that tells them apart may be missing. Equal entries are not always repeated.

Assay [1] concerns the target T1, human B-lymphocyte antigen CD19 (human, UniProt P15391 20-556).
T1 sequence (looked up): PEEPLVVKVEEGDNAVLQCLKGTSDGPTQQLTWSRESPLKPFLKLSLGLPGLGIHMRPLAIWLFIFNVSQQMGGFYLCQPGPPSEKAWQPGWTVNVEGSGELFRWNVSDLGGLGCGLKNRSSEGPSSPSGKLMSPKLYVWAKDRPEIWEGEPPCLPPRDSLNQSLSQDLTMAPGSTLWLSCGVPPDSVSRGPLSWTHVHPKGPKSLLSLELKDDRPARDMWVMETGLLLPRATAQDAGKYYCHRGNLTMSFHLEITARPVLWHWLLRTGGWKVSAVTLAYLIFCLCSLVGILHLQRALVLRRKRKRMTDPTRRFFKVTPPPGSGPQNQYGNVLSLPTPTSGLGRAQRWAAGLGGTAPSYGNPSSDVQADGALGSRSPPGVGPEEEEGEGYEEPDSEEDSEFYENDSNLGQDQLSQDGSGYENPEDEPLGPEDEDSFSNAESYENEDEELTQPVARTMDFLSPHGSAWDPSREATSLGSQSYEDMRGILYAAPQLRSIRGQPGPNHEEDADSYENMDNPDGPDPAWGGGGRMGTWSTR
Put plainly: cell-based or functional assay.

The target in assay [2] is T1, human B-lymphocyte antigen CD19. Description: FACS binding on Daudi cells, goat anti-mouse RPE detection. A general note: Flow cytometry measures light scatter and fluorescence of single cells or particles in a stream.
Assay [3] deals with T2, cynomolgus CD19 (cynomolgus, UniProt A0A2K5W8L9 20-557).
T2 construct: whole, on cells
T2 sequence: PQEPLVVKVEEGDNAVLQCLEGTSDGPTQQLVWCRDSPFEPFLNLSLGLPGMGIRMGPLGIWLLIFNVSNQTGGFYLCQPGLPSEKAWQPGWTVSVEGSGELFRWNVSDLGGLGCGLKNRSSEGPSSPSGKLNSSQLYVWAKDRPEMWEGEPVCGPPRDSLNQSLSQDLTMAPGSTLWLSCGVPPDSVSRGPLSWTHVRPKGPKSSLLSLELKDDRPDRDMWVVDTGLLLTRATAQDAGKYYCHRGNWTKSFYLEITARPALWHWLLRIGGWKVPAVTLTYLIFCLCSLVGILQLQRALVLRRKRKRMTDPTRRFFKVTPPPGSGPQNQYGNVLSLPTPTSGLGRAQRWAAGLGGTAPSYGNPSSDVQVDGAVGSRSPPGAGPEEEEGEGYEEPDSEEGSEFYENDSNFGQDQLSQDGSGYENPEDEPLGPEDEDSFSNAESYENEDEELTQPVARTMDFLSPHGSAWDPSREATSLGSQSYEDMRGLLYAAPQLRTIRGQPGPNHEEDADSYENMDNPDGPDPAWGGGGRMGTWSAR
Description: FACS on B-cells of the respective species.

The target in assay [4] is T3, rabbit CD19 (rabbit, UniProt G1TWR4 20-543).
T3 construct: whole, on cells
T3 sequence: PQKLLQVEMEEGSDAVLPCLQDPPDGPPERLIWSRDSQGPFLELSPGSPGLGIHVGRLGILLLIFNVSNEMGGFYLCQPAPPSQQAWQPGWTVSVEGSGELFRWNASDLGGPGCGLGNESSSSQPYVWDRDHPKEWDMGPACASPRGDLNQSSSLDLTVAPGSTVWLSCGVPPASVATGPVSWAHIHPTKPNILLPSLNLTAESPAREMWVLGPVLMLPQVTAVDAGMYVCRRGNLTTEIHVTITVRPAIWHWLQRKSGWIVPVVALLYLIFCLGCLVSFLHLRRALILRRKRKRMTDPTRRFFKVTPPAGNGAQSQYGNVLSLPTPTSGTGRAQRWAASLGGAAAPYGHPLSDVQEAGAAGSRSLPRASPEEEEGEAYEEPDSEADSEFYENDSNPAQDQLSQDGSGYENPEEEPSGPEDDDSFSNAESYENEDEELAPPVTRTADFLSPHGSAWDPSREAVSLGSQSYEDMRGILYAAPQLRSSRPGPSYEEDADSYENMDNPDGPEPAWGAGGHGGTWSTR
Description: FACS on B-cells of the respective species.

The target in assay [5] is T4, mouse CD19 (mouse, UniProt P25918 19-547).
T4 construct: whole, on cells
T4 sequence (looked up): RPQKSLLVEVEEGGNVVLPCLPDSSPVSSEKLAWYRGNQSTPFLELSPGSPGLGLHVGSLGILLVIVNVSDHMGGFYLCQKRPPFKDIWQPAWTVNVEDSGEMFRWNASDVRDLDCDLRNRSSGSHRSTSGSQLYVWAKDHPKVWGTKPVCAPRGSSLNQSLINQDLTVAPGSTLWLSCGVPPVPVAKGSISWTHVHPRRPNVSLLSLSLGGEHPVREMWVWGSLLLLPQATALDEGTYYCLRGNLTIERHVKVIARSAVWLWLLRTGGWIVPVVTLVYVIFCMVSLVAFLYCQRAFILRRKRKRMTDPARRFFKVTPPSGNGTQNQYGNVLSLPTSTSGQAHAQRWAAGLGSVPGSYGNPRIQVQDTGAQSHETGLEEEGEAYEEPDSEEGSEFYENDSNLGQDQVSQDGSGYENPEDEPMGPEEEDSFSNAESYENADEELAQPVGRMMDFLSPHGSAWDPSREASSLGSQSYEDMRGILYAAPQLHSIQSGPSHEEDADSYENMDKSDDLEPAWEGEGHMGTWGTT
Description: FACS on B-cells of the respective species.

The target of assay [6] is T1, human B-lymphocyte antigen CD19. Description: cell ELISA on human CD19-transfected NIH3T3 cells against untransfected NIH3T3 cells. (In general: In an ELISA, binding on a coated surface is turned into a signal by an enzyme label.)

B1: Mab381 (antibody, V domains shown)
VH: QVQLQQSGAELVRPGSSMKISCKASGYAFSSYWMNWVKQRPGQGLEWIGQIYPGDGDINYSGKFKGKVTLTADKSSSTAYMQLSSLTSEDSAVYFCARTITTVVGYVMDYWGQGTSVTVSS
VL: DIVMTQSHKFMSTSVGDRVSITCKASQDVGTVVAWYQQKPGQSPKLLIYWASTRHTGVPDRFTGSGSGTDFTLTISNVQSEDLADYFCQQYSSYPYTFGGGTKLEIKR
notes: Murine monoclonal antibody purified from hybridoma 8C3
For the molecule B1, in assay [1], the “EC50 of inhibition of Ca2+ influx in anti-IgM activated Ramos cells” value is 0.37 nM and 56 ng/ml. This molecule yielded an EC50 in assay [2] of 1.45 nM. Besides, the binding result in assay [3], in assay [4] and in assay [5] was “no binding” throughout. In addition, in assay [6], the “ratio OD NIH3T3 CD 19 to OD NIH3T3 untransfected” value is 11.4.

In general, EC50 refers to the concentration giving half of the maximal effect. A higher EC50 goes with lower potency in that assay.
